Results on three compounds are retold here after patent US20250127938A1, “THERAGNOSTIC FOLATE CONJUGATES” (Merck Patent GmbH, priority 2022, published 2025).

The structures appear in SMILES notation. A value given as a limit tells only on which side of the number the result lay.

The term logD denotes lipophilicity at a set pH, counting ionised and neutral species. As usually defined, the fraction unbound is the share of the substance not bound to proteins or other matrix. Higher therefore signals much free substance. In general, Kd refers to a measure of binding affinity in units of concentration.

The target of data set [1] is folate receptor-alpha (FR) (Homo sapiens, UniProt P15328). Conditions: background statement; cited from earlier work.
The format of data set [2] is physicochemical. Particulars: pH 7.4. On the procedure:
The n-octanol/PBS distribution coefficients (log D values) were determined for each folate radioconjugate of the disclosure in order to assess their hydrophilic/hydrophobic properties. The log D values of the folate radioconjugates of the disclosure (50 MBq/nmol) were determined as previously reported, after dilution in PBS pH 7.4 to obtain an activity concentration of 10 MBq/500 μL. A sample of each radiofolate (ca. 0.5 MBq, 25 μL, 0.01 nmol) was added to a mixture of 1475 μL PBS pH 7.4 and 1500 μL n-octanol. The vials were vortexed vigorously for 1 min followed by centrifugation for 6 min at 2500 rpm for phase separation. An aliquot was taken from each phase and measured in a gamma-counter (Perkin Elmer, Wallac Wizard 1480). The distribution coefficients were calculated as the logarithm of the ratio of counts per minute (cpm) measured in the n-octanol phase relative to the cpm measured in the PBS phase. The results were listed as mean±SD of the data obtained from 3 independent experiments, each performed with five replicates.

The subject of data set [3] is T1, human albumin.
T1 construct: tissue Stiftung Blutspende SRK Aargau-Solothurn, Switzerland; host or cells: human blood plasma
Nature of the data set: in vitro. In kind it is in vitro ADME. Particulars: plasma. The procedure:
(§1) Albumin-binding properties were determined in mouse and human blood plasma. The albumin-binding properties of the folate radioconjugates of the disclosure in mouse blood plasma (Rockland Immunochemicals, Inc., USA) and human blood plasma (Stiftung Blutspende SRK Aargau-Solothurn, Switzerland) were determined using an ultrafiltration method (Deberle, L. M. et al., Molecules 2020, 25, (11)). The amount of serum albumin in mouse (MSA) and human (HSA) blood plasma was defined as 550 μM and 800 μM, respectively, based on measurements using a dry chemistry analyzer (DRI-CHEM 4000i, FUJIFILM, Japan). The folate radioconjugates of the disclosure (50 MBq/nmol, ca. 300 kBq, 0.006 nmol in 15 μL) were added to samples of mouse and human blood plasma (150 μL), followed by incubation of the samples at 37° C. for 30 min. The samples were loaded on Amicon centrifugal filters (cut-off of 10 kDa; Merck Millipore) followed by centrifugation (14,000 rcf, 30 min, 4° C.) to allow the separation of the plasma-bound from the plasma-unbound (free) fractions of each sample. The inserts of the filter devices were inverted and centrifuged at 200 rcf for 3 min to recover the protein-bound fraction. The activity of the protein-bound fraction as well as the activity in the filtrate and in the filter unit were measured separately in a gamma-counter (Perkin Elmer, Wallac Wizard 1480). The percentage of radioconjugate bound to mouse and human albumin, respectively, was set in relation to the total activity measured (Table 4).

Data set [4] has as its system T2, mouse albumin.
T2 construct: tissue Rockland Immunochemicals, Inc., USA; host or cells: mouse blood plasma
The experiment in a line: in vitro. Format: in vitro ADME. Particulars: plasma. The procedure: as §1

The target of data set [5] is T3, FR (folate receptor) on IGROV-1 cells (Homo sapiens, UniProt P15328).
T3 construct: FR-positive IGROV-1 cells (human ovarian carcinoma cell line); endogenous in cells; host or cells: IGROV-1 human ovarian carcinoma cells (provided by Dr. Gerrit Janssen, Free University Medical Center Amsterdam)
Nature of the data set: FR-binding affinity (KD) on FR-positive IGROV-1 cells. Particulars: 1 h at 4° C., average of 3 experiments. On the procedure: The determination of the KD values was performed as previously reported (Deberle, L. M. et al; Bioconj Chem 2021, 32, p. 1617). FR-positive IGROV-1 cells (human ovarian carcinoma cell line, kindly provided by Dr. […] Janssen, Free University Medical Center Amsterdam, The Netherlands) were seeded in 48-well plates (2.5×10^5 cells/well) in 500 μL FFRPMI medium with supplements. The cells were incubated at 37° C. and 5% CO2 to allow cell adhesion overnight. The experiment was performed on ice using ice-cold medium and buffer solutions. After removal of the supernatant, the cells were rinsed once with PBS prior to the addition of FFRPMI medium without supplements (450 μL/well). The respective folate radioconjugate of the disclosure (20 MBq/nmol) was added to each well at variable concentrations (in the range of 0.1 to 500 nM, 50 μL per well). […] The IGROV-1 tumor cells were incubated for 1 h at 4° C. on a shaker, followed by removal of the supernatants and rinsing the cells twice with PBS. After lysis of the cells with NaOH solution (1 M, aq., 500 μL), the samples were counted for activity in a γ-counter (Wallac Wizard 1480, Perkin Elmer). The counts per minute (cpm) of the specific binding (determined by subtracting the cpm of the unspecific binding from the cpm of total binding), were plotted against the molar concentration of the added folate radioconjugates of the disclosure. […]

A short description of data set [6]: Radiolytic stability of the radioconjugates (HPLC). Format: physicochemical. Particulars: room temperature, PBS pH 7.4, 100 MBq/500 μL, relative to value at t0. The procedure: Radiolytic stability: After performing quality control of the radioconjugates (50 MBq/nmol) using HPLC (t0=0 h), the radioconjugates were diluted in PBS pH 7.4 to obtain an activity concentration of 100 MBq/500 μL. The radioconjugate dilutions were incubated at room temperature. The integrity of the radioconjugates was assessed after a 4 h and 24 h, respectively, using HPLC. The HPLC chromatograms were analyzed by determination of the peak area of the radiolabeled product, the released lutetium-177 as well as the degradation products of unknown structure. The quantity of the intact product was expressed as the percentage of the sum of integrated peak areas of the entire chromatogram and set into relation to the original value determined at to (radiochemical purity >95% set as 100%).

T3 sequence (P15328 25-234): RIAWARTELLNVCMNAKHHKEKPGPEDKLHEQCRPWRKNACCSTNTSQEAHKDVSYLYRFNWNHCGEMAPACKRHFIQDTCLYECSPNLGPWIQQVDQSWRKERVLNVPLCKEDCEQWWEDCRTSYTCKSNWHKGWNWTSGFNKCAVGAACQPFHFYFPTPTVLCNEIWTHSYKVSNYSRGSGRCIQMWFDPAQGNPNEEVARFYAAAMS
Sequence of folate receptor-alpha (FR) (P15328 25-234, species assumed): as the sequence (P15328 25-234) above

Consider `CN1c2c(nc(N)[nH]c2=O)NCC1CNc1ccc(C(=O)N[C@@H](CCC(=O)O)C(=O)O)cc1` (stereo partly shown) [5-methyltetrahydrofolic acid], for which the “FR affinity (KD)” value in data set [1] is given as “nanomolar range”.

On to `CN1c2c(nc(N)[nH]c2=O)NC[C@H]1CNc1ccc(C(=O)N[C@@H](CCC(=O)N[C@@H](CCCCNC(=O)CN2CCN(CC(=O)O)CCN(CC(=O)O)CCN(CC(=O)O)CC2)C(=O)N[C@@H](CCCCNC(=O)CCCCc2ccc(I)cc2)C(=O)O)C(=O)O)cc1` [[^177Lu]Lu-6R-RedFol-24, metal not drawn], for which the logD in data set [2] was -3.5 ± 0.2. The fraction unbound at 30 min, 0.036 µM in data set [3] is 0.06; in data set [4], 0.27. Moreover, binding in data set [5] was put at a Kd of 5.6 nM. The “Intact radiolabeled product [%]” value in data set [6] (4 h) and in data set [6] (24 h) was not below 99% in each case.

In data set [2], `CN1c2c(nc(N)[nH]c2=O)NC[C@@H]1CNc1ccc(C(=O)N[C@@H](CCC(=O)N[C@@H](CCCCNC(=O)CN2CCN(CC(=O)O)CCN(CC(=O)O)CCN(CC(=O)O)CC2)C(=O)N[C@@H](CCCCNC(=O)CCCCc2ccc(I)cc2)C(=O)O)C(=O)O)cc1` [[^177Lu]Lu-6S-RedFol-24, metal not drawn] showed a pH-dependent lipophilicity (logD) of -3.1 ± 0.1. In addition, the results for the fraction unbound at 30 min, 0.036 µM in data set [3] and in data set [4] were 0.14 and 0.26, respectively. The same compound gave a Kd in data set [5] of 4.6 nM. Besides, the “Intact radiolabeled product [%]” value in data set [6] (4 h) and in data set [6] (24 h) was not below 99% each time.
